These results are taken from article PMC7312664, “Beneficial Effects of Inflammatory Cytokine-Targeting Aptamers in an Animal Model of Chronic Prostatitis”.

In this data set the target is IL-1b (human) (human, UniProt P01584 117-269). Description: plate binding assay / ELISA with aptamer replacing primary antibody; dose-dependent; protein fixed in plate, n = 3; buffer, salt, pH and temperature not given in the material.
Sequence of IL-1b (human) (P01584 117-269): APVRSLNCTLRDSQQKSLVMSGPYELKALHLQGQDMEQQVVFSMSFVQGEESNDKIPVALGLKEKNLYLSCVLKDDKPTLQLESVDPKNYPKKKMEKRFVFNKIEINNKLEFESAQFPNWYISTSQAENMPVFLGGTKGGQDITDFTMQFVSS

B1: AptIL-1b (ssDNA)
DNA: GAAGTATAGCGCAATAAACTCACCTCCCAC
On to B1, for which the binding result is listed as “binds”.
